Molecular target: T1, HLA-A*01:01 (human)
T1 construct: MHC class I monomer first loaded with a UV-sensitive peptide (not identified) that is cleaved by UV irradiation and exchanged for the tested peptide; captured on streptavidin plates, detected with anti-β2m; also called peptide-receptive MHC molecules
Experiment: UV-ligand exchange, anti-b2m ELISA
In short: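 Peptide–MHC complexes made by UV-ligand exchange of a UV-cleavable peptide; exchange yield measured by ELISA on streptavidin-coated plates, samples diluted 100-fold, 1 h 37 °C. Detection with 2 ug/ml HRP anti-β2m, TMB, A450; refolded HLA-A*02:01/MLA-001 monomer standards 15-500 ng/ml.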

peptide exchange yield | Binder
50 to 75% | LTDPQVSYV
20 to 50% | FVDTKVPEH
20 to 50% | PPDHAVGRTKY
> 75% | NSENHILKY
> 75% | FSELNPLALY
50 to 75% | VACGNNPVY
> 75% | NSALNPLLY
10 to 20% | YFGNYFTYY
> 75% | YLYQAPGSLALY
50 to 75% | GTDKQNSTLRY
50 to 75% | ESAATGQLDY
10 to 20% | RFRSITQSYY
> 75% | FTESNQYNIY
20 to 50% | RTGIFPYRF
20 to 50% | SANALILTY
50 to 75% | SMDPVTGYQY
> 75% | FTDPHIITF
> 75% | QTYMDGLLHY
20 to 50% | SADHPGLTF
50 to 75% | PSSMPECLSYY
10 to 20% | SWSAGENDSYS
20 to 50% | VAGLEAGVLY
20 to 50% | LLDEDNNIKL
> 75% | PSSMPECLSY

peptide exchange yield | Binder
20 to 50% | SGALDEAAAY
50 to 75% | PANYLGKMTY
50 to 75% | MTSTEQSLY
> 75% | DTGYLQLYY
20 to 50% | EIIRYIFAY
20 to 50% | SLIIDDTEY
20 to 50% | YEPATMEQY
20 to 50% | KTLQKPVLPLY
20 to 50% | DSTDGCLLSF
20 to 50% | LQKPVLPLY
20 to 50% | MADRGEARL
10 to 20% | ITVDVRDEF
20 to 50% | SRSDFEWVY
> 75% | NTDSMTLNNTAY
50 to 75% | IMLSVDQHLY
10 to 20% | HLLSVSLYY
50 to 75% | SVDSNLVAY
10 to 20% | RFDDINQEF
50 to 75% | FTAEEGQLY
20 to 50% | YPVVVAESMY
> 75% | ETSFSTSHY
50 to 75% | NKEINYFMY
50 to 75% | ATNIQLNIDTY
20 to 50% | YSPDSFNVSW

peptide exchange yield | Binder
50 to 75% | SSWSAGENDSY
20 to 50% | STSRLTLFS
50 to 75% | MSPDIALLYL
20 to 50% | TAKAPSTEY
50 to 75% | EGELSEGEHWY
> 75% | LTDRDVSFY
20 to 50% | DGIADASNLSYY
50 to 75% | AVMEAAFVY
> 75% | ASSLDSLHY
> 75% | LTDTGYLQLY
> 75% | LSDPQAELQFY
20 to 50% | ESMDIFPLGW
> 75% | VLDPMLDFY
> 75% | NTMDAVPRIDHY
20 to 50% | RLNGSVASY
> 75% | WSDSTSQTIY
> 75% | YMSPDIALLY
10 to 20% | FHADSDDESF
50 to 75% | MTSTEQSLYY
20 to 50% | AVNALQSVY
20 to 50% | YADPSANRDLL
20 to 50% | QALQDKLQTFY
50 to 75% | EDDEDEDLY
50 to 75% | RLSTIRHLY

Reference: patent US20200087364A1 (IMMATICS BIOTECHNOLOGIES, published 2020)
